Test results reported in patent US20100316641A1 (US Dept. of Health and Human Services, published 2010).

Target: T1, Bal gp120-CD4 (HIV-1 (Bal isolate))
T1 construct: domain: gp120;domain: two-domain CD4; also called gp120Bal-CD4; panning antigen; not shown: junction or linker between gp120 and CD4 is not described
Test: ELISA, antigen coated, purified refolded nAb, anti-His-HRP

| Binder | EC50 [nM] |
| --- | --- |
| m1a1 (designed binder, also called CH2 clone m1a1; nAb m1a1; not shown: C-terminal His tag used for detection) APELLGGPSVFLFPPKPKDTLMISRTPEVTCVVVDYDYDSYFDFGKFNWYVDGVEVHNAKTKPREEQYNSTYRVVSVLTVLHQDWLNGKEYKCKVSNSDSAASGPIEKTISKAK | 500 |
| m1a2 (designed binder, also called CH2 clone m1a2; nAb m1a2; not shown: C-terminal His tag used for detection) APELLGGPSVFLFPPKPKDTLMISRTPEVTCVVVDYDYDSYYDGKFNWYVDGVEVHNAKTKPREEQYNSTYRVVSVLTVLHQDWLNGKEYKCKVSNDDYAADGPIEKTISKAK | 500 |
